Like-named read-outs stand apart in the source and are kept apart here.
T1: Activin A (UniProt P08476 311-426)
T1 construct: also called βAβA
T1 sequence (looked up): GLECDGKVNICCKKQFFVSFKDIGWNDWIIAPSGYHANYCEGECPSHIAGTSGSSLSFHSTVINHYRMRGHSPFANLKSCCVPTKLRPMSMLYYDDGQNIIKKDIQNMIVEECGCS

T2: GDF8 (UniProt O14793 267-375)
T2 construct: also called myostatin; growth and differentiation factor-8
T2 sequence (looked up): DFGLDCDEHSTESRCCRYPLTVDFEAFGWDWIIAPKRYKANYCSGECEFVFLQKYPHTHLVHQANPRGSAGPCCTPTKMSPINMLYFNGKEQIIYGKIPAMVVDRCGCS

T3: BMP9 (UniProt Q9UK05 320-429)
T3 construct: also called GDF2
T3 sequence (looked up): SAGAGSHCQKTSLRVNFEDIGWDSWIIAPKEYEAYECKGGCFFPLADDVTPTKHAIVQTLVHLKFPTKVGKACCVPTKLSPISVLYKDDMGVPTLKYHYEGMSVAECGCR

T4: Activin B (UniProt P09529 293-407)
T4 construct: also called βBβB
T4 sequence (looked up): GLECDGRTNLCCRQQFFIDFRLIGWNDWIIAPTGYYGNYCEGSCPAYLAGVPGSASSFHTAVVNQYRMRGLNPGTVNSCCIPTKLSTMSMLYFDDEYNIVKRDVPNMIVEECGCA

T5: GDF11 (UniProt O95390 299-407)
T5 construct: also called BMP11
T5 sequence (looked up): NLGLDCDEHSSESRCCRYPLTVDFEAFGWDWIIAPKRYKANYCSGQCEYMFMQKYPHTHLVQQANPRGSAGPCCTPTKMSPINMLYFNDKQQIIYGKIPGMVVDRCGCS

T6: GDF3 (UniProt Q9NR23 251-364)
T6 construct: also called VGR2
T6 sequence (looked up): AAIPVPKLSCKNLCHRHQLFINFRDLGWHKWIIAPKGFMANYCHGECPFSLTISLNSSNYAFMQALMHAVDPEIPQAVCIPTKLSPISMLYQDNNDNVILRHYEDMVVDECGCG

T7: BMP6 (UniProt P22004 382-513, limits assumed)
T7 sequence (looked up): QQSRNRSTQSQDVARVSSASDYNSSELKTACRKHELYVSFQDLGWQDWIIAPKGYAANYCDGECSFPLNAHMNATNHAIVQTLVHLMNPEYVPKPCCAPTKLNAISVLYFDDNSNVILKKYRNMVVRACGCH

T8: BMP10 (UniProt O95393 317-424)
T8 sequence (looked up): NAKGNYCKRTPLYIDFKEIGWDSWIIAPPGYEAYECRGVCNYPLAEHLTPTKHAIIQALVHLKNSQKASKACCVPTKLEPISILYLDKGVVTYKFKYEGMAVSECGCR

T9: TGFβ3 (UniProt P10600 301-412)
T9 construct: also called TGF-beta3
T9 sequence (looked up): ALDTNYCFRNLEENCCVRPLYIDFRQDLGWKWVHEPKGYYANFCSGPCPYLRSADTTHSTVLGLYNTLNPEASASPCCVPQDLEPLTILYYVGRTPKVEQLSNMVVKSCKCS

T10: TGFβ2 (UniProt P61812 303-414)
T10 construct: also called TGF-beta2
T10 sequence (looked up): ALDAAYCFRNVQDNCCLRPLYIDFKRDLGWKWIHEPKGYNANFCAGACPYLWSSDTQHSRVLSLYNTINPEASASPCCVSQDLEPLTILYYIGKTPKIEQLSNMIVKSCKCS

T11: GDF6 (UniProt Q6KF10 336-455, limits assumed)
T11 construct: also called BMP13
T11 sequence (looked up): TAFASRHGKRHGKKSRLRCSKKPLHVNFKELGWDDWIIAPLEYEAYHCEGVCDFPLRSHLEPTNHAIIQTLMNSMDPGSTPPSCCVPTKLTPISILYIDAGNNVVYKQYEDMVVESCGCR

T12: BMP7 (UniProt P18075 293-431)
T12 construct: also called osteogenic protein-1; OP-1
T12 sequence (looked up): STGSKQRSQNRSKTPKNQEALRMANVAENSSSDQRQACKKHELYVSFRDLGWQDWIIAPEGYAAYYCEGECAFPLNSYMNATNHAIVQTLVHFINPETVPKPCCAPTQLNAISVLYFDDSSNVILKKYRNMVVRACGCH

T13: BMP15 (UniProt O95972 268-392)
T13 construct: also called GDF9b
T13 sequence (looked up): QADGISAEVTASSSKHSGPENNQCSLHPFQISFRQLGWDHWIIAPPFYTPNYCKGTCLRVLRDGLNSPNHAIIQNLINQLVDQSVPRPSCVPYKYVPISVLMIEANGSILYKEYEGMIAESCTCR


Assays:
Test in all cases: Biacore SPR; receptor-Fc captured by anti-Fc antibody, ligand injected
[1] = molecular target: T1, Activin A
Method: (§1) Ligands were injected and allowed to flow over the captured receptor protein.

[2] = molecular target: T2, GDF8
Method: as §1

[3] = molecular target: T3, BMP9
Method: as §1

[4] = molecular target: T4, Activin B
Method: as §1

[5] = molecular target: T5, GDF11
Method: as §1

[6] = molecular target: T6, GDF3
Method: as §1

[7] = molecular target: T7, BMP6
[8] = molecular target: T8, BMP10
[9] = molecular target: T9, TGFβ3
Method: as §1

[10] = molecular target: T10, TGFβ2
Method: as §1

[11] = molecular target: T14, TGFβ1 (UniProt P01137 279-390)
T14 construct: also called TGF-beta1
T14 sequence (P01137 279-390 limits assumed): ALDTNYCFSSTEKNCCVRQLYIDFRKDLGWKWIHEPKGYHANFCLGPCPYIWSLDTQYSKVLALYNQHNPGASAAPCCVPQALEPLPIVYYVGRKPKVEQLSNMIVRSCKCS
Method: as §1

[12] = molecular target: T11, GDF6
Method: as §1

[13] = molecular target: BMP2 (UniProt P12643 283-396)
BMP2, sequence (P12643 283-396 limits assumed): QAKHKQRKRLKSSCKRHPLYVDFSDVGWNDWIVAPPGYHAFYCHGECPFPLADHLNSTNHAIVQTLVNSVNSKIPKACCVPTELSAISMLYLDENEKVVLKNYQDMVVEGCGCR

[14] = molecular target: T12, BMP7
[15] = molecular target: T13, BMP15
Method: A Biacore™-based binding assay was used to compare ligand binding selectivity of the single-arm BMPRII-Fc heterodimeric complex described above with that of an BMPRII-Fc homodimeric complex. The single-arm BMPRII-Fc and homodimeric BMPRII-Fc were independently captured onto the system using an anti-Fc antibody. Ligands were injected and allowed to flow over the captured receptor protein.

[16] = molecular target: T7, BMP6; remark: listed apart in the source
Method: as §1

[17] = molecular target: T8, BMP10; remark: listed apart in the source
Method: as §1

Row | Kd [1] [nM] | koff [1] [s⁻¹] | kon [1] [M⁻¹ s⁻¹] | Kd [2] [nM] | koff [2] [s⁻¹] | kon [2] [M⁻¹ s⁻¹] | Kd [3] [nM] | koff [3] [s⁻¹] | kon [3] [M⁻¹ s⁻¹] | Kd [4] [nM] | koff [4] [s⁻¹] | kon [4] [M⁻¹ s⁻¹] | Kd [5] [nM] | koff [5] [s⁻¹] | kon [5] [M⁻¹ s⁻¹] | Kd [6] [nM] | koff [6] [s⁻¹] | kon [6] [M⁻¹ s⁻¹] | Kd [7] [nM] | Kd [8] [nM] | Molecule | other results
1 | 0.019 | 0.00023 | 1.2e+07 | 0.28 | 0.00023 | 830000 | 0.078 | 0.0011 | 1.4e+07 | 0.02 | 0.0001 | 5.1e+06 | 0.002 | 0.00011 | 5e+07 | 1.5 | 0.0022 | 1.4e+06 | 0.21 | 0.011 | ActRIIB-Fc homodimer (Fc fusion) | koff [7]: 0.0068 s⁻¹; kon [7]: 3.2e+07 M⁻¹ s⁻¹; koff [8]: 0.00026 s⁻¹; kon [8]: 2.3e+07 M⁻¹ s⁻¹
2 | – | – | – | – | – | – | – | – | – | – | – | – | – | – | – | – | – | – | – | – | TGFβRII-Fc homodimer (Fc fusion) | Kd [9]: 0.099 nM; koff [9]: 0.0059 s⁻¹; kon [9]: 5.9e+07 M⁻¹ s⁻¹; Kd [10]: > 44 nM; Kd [11]: 0.025 nM; koff [11]: 0.0011 s⁻¹; kon [11]: 4.2e+07 M⁻¹ s⁻¹
3 | – | – | – | – | – | – | 2.1 | 0.026 | 1.2e+07 | 3.8 | 0.075 | 2e+07 | – | – | – | – | – | – | > 8.9 | 0.098 | BMPRII-Fc homodimer (Fc fusion) | Kd [12]: > 88 nM; Kd [13]: > 2000 nM; Kd [14]: > 38 nM; koff [8]: 0.0025 s⁻¹; kon [8]: 2.6e+07 M⁻¹ s⁻¹; Kd [15]: 0.28 nM; koff [15]: 0.0028 s⁻¹; kon [15]: 9.9e+06 M⁻¹ s⁻¹
4 | 0.099 | 0.003 | 3e+07 | 0.29 | 0.001 | 3.5e+06 | – | – | – | 0.12 | 0.00042 | 3.5e+06 | 0.02 | 0.00072 | 3.6e+07 | 12 | 0.013 | 1.1e+06 | – | – | single-arm ActRIIB-Fc heterodimeric complex (Fc fusion, The C-terminal lysine may optionally be removed; also called ActRIIB-Fc:Fc heterodimer; single-arm ActRIIB-Fc:Fc) chain 1: GRGEAETRECIYYNANWELERTNQSGLERCEGEQDKRLHCYASWRNSSGTIELVKKGCWLDDFNCYDRQECVATEENPQVYFCCCEGNFCNERFTHLPEAGGPEVTYEPPPTAPTGGGTHTCPPCPAPELLGGPSVFLFPPKPKDTLMISRTPEVTCVVVDVSHEDPEVKFNWYVDGVEVHNAKTKPREEQYNSTYRVVSVLTVLHQDWLNGKEYKCKVSNKALPAPIEKTISKAKGQPREPQVYTLPPSRKEMTKNQVSLTCLVKGFYPSDIAVEWESNGQPENNYKTTPPVLKSDGSFFLYSKLTVDKSRWQQGNVFSCSVMHEALHNHYTQKSLSLSPGK chain 2: SNTKVDKRVTGGGTHTCPPCPAPELLGGPSVFLFPPKPKDTLMISRTPEVTCVVVDVSHEDPEVKFNWYVDGVEVHNAKTKPREEQYNSTYRVVSVLTVLHQDWLNGKEYKCKVSNKALPAPIEKTISKAKGQPREPQVYTLPPSREEMTKNQVSLTCLVKGFYPSDIAVEWESNGQPENNYDTTPPVLDSDGSFFLYSDLTVDKSRWQQGNVFSCSVMHEALHNHYTQKSLSLSPGK | Kd [16]: 0.69 nM; koff [16]: 0.029 s⁻¹; kon [16]: 4.2e+07 M⁻¹ s⁻¹; binding result [3]: no binding; Kd [17]: 0.12 nM; koff [17]: 0.0097 s⁻¹; kon [17]: 8e+07 M⁻¹ s⁻¹

— US20200055920A1 (published 2020)
